Where no end group is shown, it is not given here.
Legend:
CaM agarose resin = biological target: T1, CaM agarose resin (UniProt P62157 1-149); test: pull-down; competition: 0-100 µM TRPV5 peptide added to the CaM agarose pull-down of GFP-TRPV5 lysate; TRPV5 band semi-quantified and fitted (non-linear sigmoidal) against log peptide concentration; Ca2+ concentration not stated; conditions: both partners purified
T1 construct: calmodulin coupled to agarose; Immobilised on agarose by the supplier; source: bought: Sigma Aldrich (CaM agarose resin)

[1] = biological target: the molecule itself; test: single molecule photobleaching counting (smPB, TIRF microscopy); living HEK293 cells with low expression; bleaching steps of confined spots at the cell surface counted and fitted to a binomial distribution (eGFP folding probability 72%); CaM-eGFP counted in spots positive for mCherry-TRPV5, in presence and absence of extracellular Ca2+

B1: TRPV5 distal helix peptide (peptide)
peptide: {Biotin‑C6}-QSSNSHRGWEILRRNTLGHL
notes: TRPV5 distal C-terminal helix; the limits are counted from W702, the residue changed in the printed W702A peptide; also called distal peptide; distal TRPV5 peptide; source: synthetic peptide, bought: EMC microcollections GmbH
IC50 (CaM agarose resin): 5.2 µM

B2: GFP-TRPV5 (natural protein, rabbit, UniProt Q9XSM3 1-730, looked up)
chain: MGACPPKAKGPWAQLQKLLISWPVGEQDWEQYRDRVNMLQQERIRDSPLLQAAKENDLRLLKILLLNQSCDFQQRGAVGETALHVAALYDNLEAATLLMEAAPELAKEPALCEPFVGQTALHIAVMNQNLNLVRALLARGASVSARATGAAFRRSPHNLIYYGEHPLSFAACVGSEEIVRLLIEHGADIRAQDSLGNTVLHILILQPNKTFACQMYNLLLSYDEHSDHLQSLELVPNHQGLTPFKLAGVEGNTVMFQHLMQKRKHVQWTCGPLTSTLYDLTEIDSWGEELSFLELVVSSKKREARQILEQTPVKELVSFKWKKYGRPYFCVLASLYILYMICFTTCCIYRPLKLRDDNRTDPRDITILQQKLLQEAYVTHQDNIRLVGELVTVTGAVIILLLEIPDIFRVGASRYFGQTILGGPFHVIIITYASLVLLTMVMRLTNMNGEVVPLSFALVLGWCSVMYFARGFQMLGPFTIMIQKMIFGDLMRFCWLMAVVILGFASAFHITFQTEDPNNLGEFSDYPTALFSTFELFLTIIDGPANYSVDLPFMYCITYAAFAIIATLLMLNLFIAMMGDTHWRVAQERDELWRAQVVATTVMLERKMPRFLWPRSGICGYEYGLGDRWFLRVENHHDQNPLRVLRYVEAFKCSDKEDGQEQLSEKRPSTVESGMLSRASVAFQTPSLSRTTSQSSNSHRGWEILRRNTLGHLNLGLDLGEGDGEEVYHF
notes: TRPV5, rabbit, cloned into a pcDNA5 vector with an N-terminal GFP tag; also called eGFP-TRPV5; source: HEK293, transfected, in lysate; in living cells for single molecule photobleaching; not shown: GFP, N-terminal, kept
stoichiometry N [1]: 4

— paper doi:10.1101/2021.02.16.431366, “Functional basis for calmodulation of the TRPV5 calcium channel” (bioRxiv, 2021)
